Measurements: the supplement of paper PMC3353916
± gives the standard deviation of the averaged measurements.

Tested on: Sindbis virus TE/5'2J-GFP
Assay: percent infected (GFP+ in RFP+ ISG-expressing cells); higher = more infection (less antiviral activity)
Description: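 Confirmatory testing of 87 ISGs. Triplicate wells of BHK/HA-Zeo (control) or BHK/NZAP-Zeo (ZAP) cells were transduced with lentiviruses co-expressing a human ISG plus TagRFP, then infected 48 h later with SINV TE/5'2J-GFP (moi 5). The % GFP+ cells among RFP+ cells was measured by flow cytometry at 8 h post infection. Fluc lentivirus served as control. Three independent experiments.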

[1] = experiment: confirmatory screen 1, BHK/HA-Zeo (control)
[2] = experiment: confirmatory screen 1, BHK/NZAP-Zeo (ZAP)
[3] = experiment: confirmatory screen 2, BHK/HA-Zeo (control)
[4] = experiment: confirmatory screen 2, BHK/NZAP-Zeo (ZAP)
[5] = experiment: confirmatory screen 3, BHK/HA-Zeo (control)
[6] = experiment: confirmatory screen 3, BHK/NZAP-Zeo (ZAP)
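Also: Interferon-defective BHK-21 derivatives, ZAP line overexpressing the rat ZAP N-terminal zinc finger domain fused to Zeocin resistance, GFP scored within live singlet TagRFP+ cells.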

Substance | percent infected [1] [%] | percent infected [2] [%] | percent infected [3] [%] | percent infected [4] [%] | percent infected [5] [%] | percent infected [6] [%]
ABTB2 | 94.03 ± 0.73 | 63.5 ± 5.5 | 94.02 ± 0.29 | 95.3 ± 0.29 | 93.9 ± 2 | 94.69 ± 0.42
BTN3A3 | 82.3 ± 4 | 57.5 ± 0.65 | 93.48 ± 0.51 | 95.55 ± 0.27 | 90.09 ± 0.83 | 89.4 ± 1.4
ISG20 | 95.82 ± 0.88 | 73.1 ± 2.4 | 96.88 ± 0.17 | 95.24 ± 0.15 | 87 ± 2.5 | 90.59 ± 0.73
MAATEISVLSEQFTKIKELELMPEKGLKEEEKDGVCREKDHRSPSELEAERTSGAFQDSVLEEEVELVLAPSEESEKYILTLQTVHFTSEAVELQDMSLLSIQQQEGVQVVVQQPGPGLLWLEEGPRQSLQQCVAISIQQELYSPQEMEVLQFHALEENVMVASEDSKLAVSLAETTGLIKLEEEQEKNQLLAERTKEQLFFVETMSGDERSDEIVLTVSNSNVEEQEDQPTAGQADAEKAKSTKNQRKTKGAKGTFHCDVCMFTSSRMSSFNRHMKTHTSEKPHLCHLCLKTFRTVTLLRNHVNTHTGTRPYKCNDCNMAFVTSGELVRHRRYKHTHEKPFKCSMCKYASVEASKLKRHVRSHTGERPFQCCQCSYASRDTYKLKRHMRTHSGEKPYECHICHTRFTQSGTMKIHILQKHGENVPKYQCPHCATIIARKSDLRVHMRNLHAYSAAELKCRYCSAVFHERYALIQHQKTHKNEKRFKCKHCSYACKQERHMTAHIRTHTGEKPFTCLSCNKCFRQKQLLNAHFRKYHDANFIPTVYKCSKCGKGFSRWINLHRHSEKCGSGEAKSAASGKGRRTRKRKQTILKEATKGQKEAAKGWKEAANGDEAAAEEASTTKGEQFPGEMFPVACRETTARVKEEVDEGVTCEMLLNTMDK [CTCFL] | 95.5 ± 1.9 | 68 ± 7.4 | 97.4 ± 0.23 | 95.98 ± 0.22 | 88.6 ± 1.2 | 86.4 ± 0.91
MAFF | 92.89 ± 0.73 | 70.1 ± 7.5 | 94.1 ± 0.95 | 93.98 ± 0.15 | 93.24 ± 0.65 | 91.23 ± 0.34
MAGIELERCQQQANEVTEIMRNNFGKVLERGVKLAELQQRSDQLLDMSSTFNKTTQNLAQKKCWENIRYRICVGLVVVGVLLIILIVLLVVFLPQSSDSSSAPRTQDAGIASGPGN [VAMP5] | 97.4 ± 0.76 | 78.6 ± 3.2 | 96.57 ± 0.3 | 94.74 ± 0.23 | 93.95 ± 0.59 | 93.52 ± 0.17
MAGPERWGPLLLCLLQAAPGRPRLAPPQNVTLLSQNFSVYLTWLPGLGNPQDVTYFVAYQSSPTRRRWREVEECAGTKELLCSMMCLKKQDLYNKFKGRVRTVSPSSKSPWVESEYLDYLFEVEPAPPVLVLTQTEEILSANATYQLPPCMPPLDLKYEVAFWKEGAGNKTLFPVTPHGQPVQITLQPAASEHHCLSARTIYTFSVPKYSKFSKPTCFLLEVPEANWAFLVLPSLLILLLVIAAGGVIWKTLMGNPWFQRAKMPRALDFSGHTHPVATFQPSRPESVNDLFLCPQKELTRGVRPTPRVRAPATQQTRWKKDLAEDEEEEDEEDTEDGVSFQPYIEPPSFLGQEHQAPGHSEAGGVDSGRPRAPLVPSEGSSAWDSSDRSWASTVDSSWDRAGSSGYLAEKGPGQGPGGDGHQESLPPPEFSKDSGFLEELPEDNLSSWATWGTLPPEPNLVPGGPPVSLQTLTFCWESSPEEEEEARESEIEDSDAGSWGAESTQRTEDRGRTLGHYMAR [IL28RA] | 11.9 ± 5.4 | 1.35 ± 0.22 | 33 ± 1.4 | 11.4 ± 0.84 | 21.4 ± 1.5 | 8.02 ± 0.72
MALAPERAAPRVLFGEWLLGEISSGCYEGLQWLDEARTCFRVPWKHFARKDLSEADARIFKAWAVARGRWPPSSRGGGPPPEAETAERAGWKTNFRCALRSTRRFVMLRDNSGDPADPHKVYALSRELCWREGPGTDQTEAEAPAAVPPPQGGPPGPFLAHTHAGLQAPGPLPAPAGDKGDLLLQAVQQSCLADHLLTASWGADPVPTKAPGEGQEGLPLTGACAGGPGLPAGELYGWAVETTPSPGPQPAALTTGEAAAPESPHQAEPYLSPSPSACTAVQEPSPGALDVTIMYKGRTVLQKVVGHPSCTFLYGPPDPAVRATDPQQVAFPSPAELPDQKQLRYTEELLRHVAPGLHLELRGPQLWARRMGKCKVYWEVGGPPGSASPSTPACLLPRNCDTPIFDFRVFFQELVEFRARQRRGSPRYTIYLGFGQDLSAGRPKEKSLVLVKLEPWLCRVHLEGTQREGVSSLDSSSLSLCLSSANSLYDDIECFLMELEQPA [IRF7] | 72 ± 5.6 | 7.66 ± 2.9 | 95.59 ± 0.13 | 92 ± 0.75 | 69.3 ± 3.4 | 32.8 ± 18
MALEIHMSDPMCLIENFNEQLKVNQEALEILSAITQPVVVVAIVGLYRTGKSYLMNKLAGKNKGFSVASTVQSHTKGIWIWCVPHPNWPNHTLVLLDTEGLGDVEKADNKNDIQIFALALLLSSTFVYNTVNKIDQGAIDLLHNVTELTDLLKARNSPDLDRVEDPADSASFFPDLVWTLRDFCLGLEIDGQLVTPDEYLENSLRPKQGSDQRVQNFNLPRLCIQKFFPKKKCFIFDLPAHQKKLAQLETLPDDELEPEFVQQVTEFCSYIFSHSMTKTLPGGIMVNGSRLKNLVLTYVNAISSGDLPCIENAVLALAQRENSAAVQKAIAHYDQQMGQKVQLPMETLQELLDLHRTSEREAIEVFMKNSFKDVDQSFQKELETLLDAKQNDICKRNLEASSDYCSALLKDIFGPLEEAVKQGIYSKPGGHNLFIQKTEELKAKYYREPRKGIQAEEVLQKYLKSKESVSHAILQTDQALTETEKKKKEAQVKAEAEKAEAQRLAAIQRQNEQMMQERERLHQEQVRQMEIAKQNWLAEQQKMQEQQMQEQAAQLSTTFQAQNRSLLSELQHAQRTVNNDDPCVLL [GBP5] | 95.4 ± 1.4 | 60 ± 5.7 | 97.28 ± 0.17 | 96.34 ± 0.093 | 87.3 ± 1.1 | 86.3 ± 0.93
MALLDVCGAPRGQRPESALPVAGSGRRSDPGHYSFSMRSPELALPRGMQPTEFFQSLGGDGERNVQIEMAHGTTTLAFKFQHGVIAAVDSRASAGSYISALRVNKVIEINPYLLGTMSGCAADCQYWERLLAKECRLYYLRNGERISVSAASKLLSNMMCQYRGMGLSMGSMICGWDKKGPGLYYVDEHGTRLSGNMFSTGSGNTYAYGVMDSGYRPNLSPEEAYDLGRRAIAYATHRDSYSGGVVNMYHMKEDGWVKVESTDVSDLLHQYREANQ [PSMB8] | 94.7 ± 1.4 | 64.8 ± 5.2 | 95.27 ± 0.2 | 94.97 ± 0.39 | 94.16 ± 0.23 | 94.18 ± 0.46
MALLLALSLLVLWTSPAPTLSGTNDAEDCCLSVTQKPIPGYIVRNFHYLLIKDGCRVPAVVFTTLRGRQLCAPPDQPWVERIIQRLQRTSAKMKRRSS [CCL19] | 95.7 ± 1.2 | 81.5 ± 1.8 | 95.5 ± 0.73 | 95.12 ± 0.1 | 92.83 ± 0.53 | 92.52 ± 0.47
MAPEINLPGPMSLIDNTKGQLVVNPEALKILSAITQPVVVVAIVGLYRTGKSYLMNKLAGKKNGFSLGSTVKSHTKGIWMWCVPHPKKPEHTLVLLDTEGLGDIEKGDNENDSWIFALAILLSSTFVYNSMGTINQQAMDQLHYVTELTDRIKANSSPGNNSVDDSADFVSFFPAFVWTLRDFTLELEVDGEPITADDYLELSLKLRKGTDKKSKSFNDPRLCIRKFFPKRKCFVFDWPAPKKYLAHLEQLKEEELNPDFIEQVAEFCSYILSHSNVKTLSGGIPVNGPRLESLVLTYVNAISSGDLPCMENAVLALAQIENSAAVEKAIAHYEQQMGQKVQLPTETLQELLDLHRDSEREAIEVFMKNSFKDVDQMFQRKLGAQLEARRDDFCKQNSKASSDCCMALLQDIFGPLEEDVKQGTFSKPGGYRLFTQKLQELKNKYYQVPRKGIQAKEVLKKYLESKEDVADALLQTDQSLSEKEKAIEVERIKAESAEAAKKMLEEIQKKNEEMMEQKEKSYQEHVKQLTEKMERDRAQLMAEQEKTLALKLQEQERLLKEGFENESKRLQKDIWDIQMRSKSLEPICNIL [GBP2] | 96.3 ± 0.94 | 80.8 ± 0.62 | 94.84 ± 0.44 | 95.94 ± 0.23 | 93.28 ± 0.57 | 94.23 ± 0.41
